Assay results reported in patent publication US20150299296A1 (Chugai, published 2015).

T1: human FcγRIIb extracellular domain with C-terminal His tag (human, UniProt P31994 43-217)
T1 construct: extracellular domain; For crystals it was expressed with kifunensine and trimmed with Endo F1; also called FcgRIIb; FcγRIIb extracellular region
T1 sequence (looked up): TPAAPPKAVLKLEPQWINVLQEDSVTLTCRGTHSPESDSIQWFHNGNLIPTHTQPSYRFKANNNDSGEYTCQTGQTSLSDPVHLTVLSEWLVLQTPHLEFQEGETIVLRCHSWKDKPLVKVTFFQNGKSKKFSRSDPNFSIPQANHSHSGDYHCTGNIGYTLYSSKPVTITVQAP

T2: human FcγRIIa type H extracellular domain with C-terminal His tag (human, UniProt P12318 34-217)
T2 construct: extracellular domain; also called FcgRIIaH; FcγRIIa H
T2 sequence (looked up): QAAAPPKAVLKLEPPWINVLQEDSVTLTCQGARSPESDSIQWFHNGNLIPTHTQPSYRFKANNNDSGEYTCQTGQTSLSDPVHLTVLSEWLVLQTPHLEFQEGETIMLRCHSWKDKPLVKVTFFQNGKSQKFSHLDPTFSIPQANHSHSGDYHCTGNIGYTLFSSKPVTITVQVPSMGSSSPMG


Key:
[1] = molecular target: T3, human FcγRIa extracellular domain with C-terminal His tag (human, UniProt P12314 16-292); assay: SPR (Biacore): antibody captured on the chip, FcγR as analyte; amount bound divided by amount of antibody captured, relative to the antibody without mutation in B3 = 100 (Reference Examples 2 and 3)
T3 construct: Whole entry named; also called FcgRIa; FcgIa

[2] = molecular target: T4, FcγRIIIa extracellular domain with C-terminal His tag, allotype not stated (Reference Example 4) (human, UniProt P08637 17-208); assay: as above
T4 construct: extracellular domain

[3] = molecular target: T1, human FcγRIIb extracellular domain with …; assay: SPR (Biacore), KD by the method of Reference Example 2 (Example 9-3)
Description: These variants were used for antibody expression and purification according to the method of Reference Example 1, and binding to each FcgR (FcgRIa. FcgRIIa type H, FcgRIIa type R, FcgRIIb, and FcgRIIIa type V) was assessed using the method of Reference Example 2.

[4] = molecular target: T1, human FcγRIIb extracellular domain with …; assay: SPR KD ratio; reference is the same variant's KD for FcγRIIaR
[5] = molecular target: T3, human FcγRIa extracellular domain with …; assay: SPR
[6] = molecular target: T5, human FcγRIIIa type V extracellular domain with C-terminal His tag (human, UniProt P08637 17-208); assay: SPR
T5 construct: extracellular domain; also called FcgRIIIaV; FcγRIIIaV

[7] = molecular target: T2, human FcγRIIa type H extracellular …; assay: SPR

T3 sequence (P12314 16-292): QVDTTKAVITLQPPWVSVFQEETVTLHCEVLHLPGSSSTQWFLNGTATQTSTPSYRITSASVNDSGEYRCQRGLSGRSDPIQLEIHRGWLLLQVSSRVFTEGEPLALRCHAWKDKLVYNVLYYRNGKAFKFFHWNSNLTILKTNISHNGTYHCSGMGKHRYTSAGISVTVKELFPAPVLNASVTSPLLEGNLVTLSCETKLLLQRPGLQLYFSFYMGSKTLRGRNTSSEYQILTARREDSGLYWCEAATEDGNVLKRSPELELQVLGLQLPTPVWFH
T5 sequence (P08637 17-208 F176V): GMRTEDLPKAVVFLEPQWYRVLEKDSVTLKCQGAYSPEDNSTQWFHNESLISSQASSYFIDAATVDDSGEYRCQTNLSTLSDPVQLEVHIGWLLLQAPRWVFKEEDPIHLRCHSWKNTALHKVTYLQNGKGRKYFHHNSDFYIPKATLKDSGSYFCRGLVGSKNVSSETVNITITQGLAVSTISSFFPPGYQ
T4 sequence (P08637 17-208): as the sequence (P08637 17-208 F176V) above, with V160F counted along it

Row | Binder | binding result [1] | KD (IIaR)/KD (IIb) [4] | binding result [5] | also measured
1 | mutation B (antibody, human IgG1, kappa, Legend: mutation B = Leu at 328 (EU numbering) substituted with Glu) heavy chain: not shown light chain: DIVMTQSPLSLPVTPGEPASISCQASESLVHSNRNTYLHWYLQKPGQSPQLLIYKVSNRFSGVPDRFSGSGSGTDFTLKISRVEAEDVGVYYCSQNTHVPPTFGQGTKVEIERTVAAPSVFIFPPSDEQLKSGTASVVCLLNNFYPREAKVQWKVDNALQSGNSQESVTEQDSKDSTYSLSSTLTLSKADYEKHKVYACEVTHQGLSSPVTKSFNRGEC | binds | – | – | –
2 | IL6R-BP264/IL6R-L (antibody, human IgG1, kappa) heavy: QVQLQESGPGLVKPSETLSLTCAVSGHSISHDHAWSWVRQPPGEGLEWIGFISYSGITNYNPSLQGRVTISRDNSKNTLYLQMNSLRAEDTAVYYCARSLARTTAMDYWGEGTLVTVSSASTKGPSVFPLAPSSKSTSGGTAALGCLVKDYFPEPVTVSWNSGALTSGVHTFPAVLQSSGLYSLSSVVTVPSSSLGTQTYICNVNHKPSNTKVDKKVEPKSCDKTHTCPPCPAPDLLGDDSVFLFPPKPKDTLMISRTPEVTCVVVDVSEEDGEVKFNWYVDGVEVHNAKTKPREEQDNSTYRVVSVLTVLHQDWLNGKEYKCKVSNKALPRPIEKTISKAKGQPREPQVYTLPPSRDELTKNQVSLTCLVKGFYPSDIAVEWESNGQPENNYKTTPPVLDSDGSFFLYSKLTVDKSRWQQGNVFSCSVMHEALHNHYTQESLSLSP light: not shown | – | – | – | binding result [3]: binds
3 | IL6R-BP479/IL6R-L (antibody) chain 1: QVQLQESGPGLVKPSETLSLTCAVSGHSISHDHAWSWVRQPPGEGLEWIGFISYSGITNYNPSLQGRVTISRDNSKNTLYLQMNSLRAEDTAVYYCARSLARTTAMDYWGEGTLVTVSSASTKGPSVFPLAPSSKSTSGGTAALGCLVKDYFPEPVTVSWNSGALTSGVHTFPAVLQSSGLYSLSSVVTVPSSSLGTQTYICNVNHKPSNTKVDKKVEPKSCDKTHTCPPCPAPDLLGDDSVFLFPPKPKDTLMISRTPEVTCVVIDLAEEDGEVKFNWYVDGVEVHNAKTKPREEQYNSTYRVVSVLTVLHQDWLNGKEYKCKVSNKALPAPIEKTISKAKGQPREPQVYTLPPSRDELTKNQVSLTCLVKGFYPSDIAVEWESNGQPENNYKTTPPVLDSDGSFFLYSKLTVDKSRWQQGNVFSCSVMHEALHNHYTQESLSLSP chain 2: not shown | – | 16.1 | – | –
4 | IL6R-BP567/IL6R-L (antibody, human IgG1, kappa) heavy: QVQLQESGPGLVKPSETLSLTCAVSGHSISHDHAWSWVRQPPGEGLEWIGFISYSGITNYNPSLQGRVTISRDNSKNTLYLQMNSLRAEDTAVYYCARSLARTTAMDYWGEGTLVTVSSASTKGPSVFPLAPSSKSTSGGTAALGCLVKDYFPEPVTVSWNSGALTSGVHTFPAVLQSSGLYSLSSVVTVPSSSLGTQTYICNVNHKPSNTKVDKKVEPKSCDKTHTCPPCPAPDLLGGDSVFLFPPKPKDTLMISRTPEVTCVVIDVAEEDGEVKFNWYVDGVEVHNAKTKPREEQDNSTYRVVSVLTVLHQDWLNGKEYKCKVSNKALPAPIEKTISKAKGQPREPQVYTLPPSRDELTKNQVSLTCLVKGFYPSDIAVEWESNGQPENNYKTTPPVLDSDGSFFLYSKLTVDKSRWQQGNVFSCSVMHEALHNHYTQESLSLSP light: not shown | – | 64.4 | binds | –

Now from value to binder, other results behind:

Row | binding result [1] | KD (IIaR)/KD (IIb) [4] | binding result [5] | Binder | also measured
5 | binds | – | – | mutation A (antibody, human IgG1, kappa) heavy chain: not shown light chain: DIVMTQSPLSLPVTPGEPASISCQASESLVHSNRNTYLHWYLQKPGQSPQLLIYKVSNRFSGVPDRFSGSGSGTDFTLKISRVEAEDVGVYYCSQNTHVPPTFGQGTKVEIERTVAAPSVFIFPPSDEQLKSGTASVVCLLNNFYPREAKVQWKVDNALQSGNSQESVTEQDSKDSTYSLSSTLTLSKADYEKHKVYACEVTHQGLSSPVTKSFNRGEC | binding result [2]: no binding
6 | – | – | binds | IL6R-BP253/IL6R-L (antibody, human IgG1, kappa, IL6R-B3 with S267E and L328F; also called IL6R-BP253/ILR-L) heavy: QVQLQESGPGLVKPSETLSLTCAVSGHSISHDHAWSWVRQPPGEGLEWIGFISYSGITNYNPSLQGRVTISRDNSKNTLYLQMNSLRAEDTAVYYCARSLARTTAMDYWGEGTLVTVSSASTKGPSVFPLAPSSKSTSGGTAALGCLVKDYFPEPVTVSWNSGALTSGVHTFPAVLQSSGLYSLSSVVTVPSSSLGTQTYICNVNHKPSNTKVDKKVEPKSCDKTHTCPPCPAPELLGGPSVFLFPPKPKDTLMISRTPEVTCVVVDVEHEDPEVKFNWYVDGVEVHNAKTKPREEQYNSTYRVVSVLTVLHQDWLNGKEYKCKVSNKAFPAPIEKTISKAKGQPREPQVYTLPPSRDELTKNQVSLTCLVKGFYPSDIAVEWESNGQPENNYKTTPPVLDSDGSFFLYSKLTVDKSRWQQGNVFSCSVMHEALHNHYTQESLSLSP light: not shown | binding result [6]: binds; binding result [7]: binds
